These results are taken from patent publication US20220363754A1 (SHANGHAI JUNSHI BIOSCIENCES, published 2022).

The target of assay [1] is T1, recombinant protein hTIGIT-ECD-mFC (human; mouse, UniProt Q495A1 24-155).
T1 construct: range 24-155; Expressed in 293E cells; also called human TIGIT-ECD-mFc; not shown: murine IgG2a Fc domain of the vector MX2-mFc
T1 sequence (looked up): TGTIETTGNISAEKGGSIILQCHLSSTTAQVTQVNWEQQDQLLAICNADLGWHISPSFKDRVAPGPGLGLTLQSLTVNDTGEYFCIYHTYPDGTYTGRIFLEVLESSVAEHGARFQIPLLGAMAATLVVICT
Kind of assay: ELISA, 0.5 ug/mL human TIGIT-ECD-mFc coated on the plate, detection with anti-IgG4-HRP, OD 450 nm; unit taken from the axis Log:ng/mL.

The target of assay [2] is T1, recombinant protein hTIGIT-ECD-mFC. Described as above. The source holds these as a separate data set.
The target is the same in assay [3]. The description is as above. The source holds these as a separate data set.
Assay [4] shares this target. The assay is described as above. The source holds these as a separate data set.
The target in assay [5] is T2, human TIGIT on Jurkat reporter cells (Jurkat/NFAT-Luc/hPD-1-hTIGIT) (human, UniProt Q495A1 22-244).
T2 sequence (looked up): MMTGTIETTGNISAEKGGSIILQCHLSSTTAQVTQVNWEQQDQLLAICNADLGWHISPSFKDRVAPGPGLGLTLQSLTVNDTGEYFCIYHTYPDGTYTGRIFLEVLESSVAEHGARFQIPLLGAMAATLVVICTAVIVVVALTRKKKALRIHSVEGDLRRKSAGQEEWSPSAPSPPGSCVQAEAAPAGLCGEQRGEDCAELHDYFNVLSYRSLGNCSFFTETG
Kind of assay: cell-based or functional assay.

Assay [6] addresses T1, recombinant protein hTIGIT-ECD-mFC. Nature of the assay: ELISA, human TIGIT-ECD-mFc coated at 0.5 ug/mL, anti-IgG4-HRP. The method, then:
(§1) The solution in wells was then discarded, and the wells were washed 3 times with a washing buffer and blocked for 60 minutes with PBS containing 2% BSA. After the plate was washed 3 times with the washing buffer, humanized antibody dilutions at different concentrations were added. The antibodies were incubated at 37° C. for 60 minutes, and then the plate was washed 3 times with the washing buffer and added with 5000-fold diluted anti-IgG4-HRP. The system was incubated at 37° C. for 30 minutes, and then washed three times with the washing buffer and added with 100 μL of TMB substrate for color development. The system was incubated at room temperature for 30 minutes, and the reaction was then terminated with 100 μL of 2 M hydrochloric acid solution. The absorbance at 450 nm was measured by a plate reader.
On the technique in general: ELISA stands for enzyme-linked immunosorbent assay.

For assay [7], the target named is T3, hTIGIT-Fc (human, UniProt Q495A1 24-155).
T3 construct: range 24-155; also called human TIGIT; not shown: Fc part of the Biacore antigen is not described (possibly the murine IgG2a Fc of hTIGIT-ECD-mFC)
T3 sequence (looked up): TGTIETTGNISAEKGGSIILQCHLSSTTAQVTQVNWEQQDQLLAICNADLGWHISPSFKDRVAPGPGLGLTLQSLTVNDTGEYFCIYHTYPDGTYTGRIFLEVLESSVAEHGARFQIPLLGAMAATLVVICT
Nature of the assay: SPR (Biacore T200), antibody captured by anti-human Fc, antigen in solution, 1:1 model. The protocol: (§2) An S series CM5 chip (GE) was first loaded onto the instrument, and 40 μg/mL of goat anti-human Fc fragment antibody (Jackson ImmuneResearch) dissolved in sodium acetate-acetic acid buffer (pH 5.0) was ready to be coupled to the chip surface. The buffer used for the detection of antibody-antigen binding was HBS-EP+ from GE Healthcare. The antibodies hu3 and hu20 were each diluted to 8 μg/mL and captured on the chip surface. […] The resulting data were analyzed with a 1:1 binding model by using Biacore T200 Evaluation Software 3.0.
In general terms: SPR reads the build-up and loss of mass on a sensor chip optically.

For assay [8], the target named is T4, Cyno TIGIT-Fc (cynomolgus monkey, UniProt A0A7N9I9V4 89-209).
T4 construct: extracellular domain; the whole named entry is XP 015300912.1; also called cynomolgus monkey TIGIT; cynoTIGIT-ECD; not shown: Fc part is not described
Described as above. The method, then:
as §2

The target in assay [9] is T5, hTIGIT (FACS blocking assay of Example 10) (human, UniProt Q495A1 22-141, limits assumed).
T5 construct: The protocol names only PVR-mFC and 293F-hPVR cells; which of them should be TIGIT cannot be told
T5 sequence (looked up): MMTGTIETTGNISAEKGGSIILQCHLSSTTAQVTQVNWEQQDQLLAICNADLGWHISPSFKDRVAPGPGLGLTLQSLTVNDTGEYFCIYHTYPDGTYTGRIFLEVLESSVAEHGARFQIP
Nature of the assay: competitive FACS, antibody titrated from 30 ug/mL in 3-fold steps, blocking of the binding of hTIGIT to its ligand hPVR on the cell surface, MFI; unit taken from the axis Log[concentration] ng/mL. The method, then:
Briefly, antibody dilutions at different concentrations (an initial concentration of 30 μg/mL, 3-fold titration) were each mixed with PVR-mFC (1 ug/mL, 50 μL) and incubated for 30 minutes at room temperature. The mixture was then incubated with cell suspension (stable 293F-hPVR cell line, 2.5×10⁴ cells/well) for 15 minutes at 37° C. After 3 times of elution with PBS, 100 μL of goat anti-human IgG-PE antibody was added, and the system was incubated for 30 minutes in the dark. After 3 times of elution with PBS, detection was performed by FACS. Viable cells were gated on the basis of FSC/SSC, and their geometric mean fluorescence intensity was measured.

Assay [10] concerns the target T1, recombinant protein hTIGIT-ECD-mFC. Nature of the assay: ELISA, human TIGIT-ECD-mFc coated at 1 ug/mL, anti-IgG4-HRP. The protocol:
as §1, with “chimeric” for “humanized”

T4 sequence (A0A7N9I9V4 entry or part of it): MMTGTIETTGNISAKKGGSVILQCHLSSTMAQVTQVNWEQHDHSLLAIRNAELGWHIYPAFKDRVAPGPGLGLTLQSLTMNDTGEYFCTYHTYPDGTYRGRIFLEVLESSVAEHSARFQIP

B1: etigilimab (antibody, V domains shown)
VH: QVQLQESGPGLVKPSETLSLTCAVSGYSITSDYAWNWIRQPPGKGLEWIGYISYSGSTSYNPSLRSRVTISRDTSKNQFFLKLSSVTAADTAVYYCARRQVGLGFAYWGQGTLVTVSS
VL: DIQMTQSPSSLSASVGDRVTITCKASQDVSTAVAWYQQKPGKAPKLLIYSASYRYTGVPSRFSGSGSGTDFTFTISSLQPEDIATYYCQQHYSTPWTFGQGTKVEIK
Usually EC50 stands for the concentration that produces a half-maximal response. For B1, the EC50 in [1] is 0.0362 µg/mL; in assay [2], 0.0194 µg/mL; in assay [3], 0.0262 µg/mL; in assay [4], 0.0275 µg/mL.

B2: humanized antibody hu3 (antibody, human IgG4 S228P, kappa, V domains shown)
VH: QVQLVQSGAEVKKPGASVKVSCKTSGYAFTEYTMHWVRQAPGQGLEWMGGINPNTGGTTYNQKFQGRVTLTVDKSSSTAYMELSRLRSDDTVVYYCAKLLRLMYYFDYWGQGTLVTVSS
VL: DIVMTQSPDSLAVSLGERATINCKASQDVRTAVAWYQQKPGQPPKLLIYSASYRYTGVPDRFSGSGSGTDFTLTISSLQAEDVAVYYCHQHYITPWTFGGGTKVEIKR
notes: Humanized from 2O18
Broadly, the Kd is the constant that tells how readily two partners part at equilibrium. As usually defined, the koff is the first-order rate constant of dissociation. Low values mean a long-lived complex, high ones a short-lived complex. One may read the kon as the second-order rate constant of association. Read a high kon as faster complex formation. For orientation: IC50 means the concentration that inhibits the measured activity by half. High values mean a need for much substance, low ones inhibition by little substance. B2: the “EC50, luciferase reporter gene experiment (T cell activation)” value (from here on “EC50 … (T cell activation)”) in [5] came out at 0.14 µg/mL. In [6], the EC50 came to 0.0232 µg/mL. Also, in [7], the Kd worked out at 0.13 nM, the koff stood at 0.000121 s⁻¹ and the kon worked out at 935000 M⁻¹ s⁻¹. In [8], this molecule displayed a Kd of 1.42 nM, a koff of 0.0003 s⁻¹ and a kon of 211000 M⁻¹ s⁻¹. Moreover, in [9], the IC50 is 0.0693 µg/mL.

B3: humanized antibody hu20 (antibody, human IgG4 S228P, kappa, V domains shown)
VH: QVQLVQSGAEVKKPGASVKVSCKTSGYAFTEYTMHWVRQAPGKGLEWMGGINPNTGGTTYNQKFQGRVTLTVDKSSSTAYMELSSLRSEDTVVYYCAKLLRLMYYFDYWGQGTLVTVSS
VL: DIQMTQSPSSLSASVGDRVTITCQASQDVRTAVAWYQQKPGKAPKLLIYSASYRYTGVPSRFSGSGSGTDFTFTISSLQPEDIATYYCHQHYITPWTFGGGTKVEIKR
notes: Humanized from 2O18
Turning to B3, the “EC50 … (T cell activation)” value in assay [5] came to 0.0424 µg/mL. Moreover, the concentration for a half-maximal effect (EC50) in [6] turned out to be 0.0378 µg/mL. In assay [7], the Kd turned out to be 0.209 nM, the koff is 0.000163 s⁻¹ and the kon came out at 777000 M⁻¹ s⁻¹. Also, in [8], binding was put at a Kd of 1.45 nM, the koff came to 0.000329 s⁻¹ and the association rate constant (kon) stood at 226000 M⁻¹ s⁻¹. In addition, the IC50 in assay [9] was 0.0587 µg/mL.

B4: chimeric antibody ch4 (antibody, human IgG4, V domains shown)
VH: QVQLQQSGDELVRPGTSVKVSCQAAGYTFTNYWILWIKQRPRHGLEWIGDIYPGGHYTNYNEKFKGKATLTADTSSSTAYMQLNSLTSEDSAIYYCTRYYGPYAMDYWGQGTSVTVSS
VL: DIVMSQSPSSLPVSVGEKVTMSCKSSQSLLYNSNQKNYLAWYQQIPGQSPKLLIYWASTGESGVPDRFTGSGSGTDFTLTISSVKAEDLAVYYCQQYYSYPFTFGSGTKLEIK
notes: IgG4 chimeric antibody; also called 23O20-ch-HC / 23O20-ch-LC
For the molecule B4, the “EC50 … (T cell activation)” value in assay [5] was 0.104 µg/mL. The EC50 in assay [10] was determined as 0.00893 µg/mL.

B5: chimeric antibody ch1 (antibody, human IgG4, V domains shown)
VH: EVQLQQSGPELVKPGASVKISCKTSGYAFTEYTMHWVKQSHGKSLEWIGGINPNTGGTTYNQKFKGKATLTVDKSSSTAYMEFRSLTSEDSAVYYCAKLLRLMYYFDYWGQGTTLTVSS
VL: DIVMTQSHKFMSTSVGDRVSITCKASQDVRTAVAWYQQKPGQSPKLLIYSASYRYTGVPDRFTGSGSGTDFTFTISSVQAEDLALYYCHQHYITPWTFGGGTKLEIK
notes: IgG4 chimeric antibody; also called 2O18-ch-HC / 2O18-ch-LC
Take B5: in [5], the “EC50 … (T cell activation)” value was 0.0766 µg/mL. Moreover, the EC50 in assay [10] amounted to 0.0325 µg/mL.
